According to article PMC9338922, “DltC acts as an interaction hub for AcpS, DltA and DltB in the teichoic acid D-alanylation pathway of Lactiplantibacillus plantarum” (Scientific Reports, 2022):

T1: DltA-∆P-loop mutant, C-terminal His6 tag (Lactiplantibacillus plantarum, UniProt Q88VM6 1-508, missing the loop region comprised between T152 and K160)
T1 sequence: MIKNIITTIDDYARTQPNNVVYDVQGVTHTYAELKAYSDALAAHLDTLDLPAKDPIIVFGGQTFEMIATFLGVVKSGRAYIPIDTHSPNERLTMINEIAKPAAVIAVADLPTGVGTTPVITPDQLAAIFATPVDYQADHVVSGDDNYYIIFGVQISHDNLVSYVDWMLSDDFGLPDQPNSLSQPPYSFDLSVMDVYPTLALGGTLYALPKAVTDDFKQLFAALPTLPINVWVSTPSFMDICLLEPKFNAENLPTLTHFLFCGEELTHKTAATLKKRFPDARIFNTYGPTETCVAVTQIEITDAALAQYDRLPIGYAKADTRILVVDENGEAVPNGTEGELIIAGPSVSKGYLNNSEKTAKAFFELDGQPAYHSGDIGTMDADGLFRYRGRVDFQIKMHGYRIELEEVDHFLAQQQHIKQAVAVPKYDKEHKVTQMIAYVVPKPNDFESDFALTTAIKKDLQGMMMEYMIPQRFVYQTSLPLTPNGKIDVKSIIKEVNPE

T2: DltA-∆P-loop mutant, C-terminal His6 tag (Lactiplantibacillus plantarum, UniProt Q88VM6 1-508, missing the loop region comprised between T152 and K160)
T2 construct: DltA of Lactiplantibacillus plantarum, full length but missing the P-loop region comprised between Thr152 and Lys160, cloned in pT7-7; source: E. coli BL21 (DE3), purified (Ni-NTA, SEC)
T2 sequence (looked up): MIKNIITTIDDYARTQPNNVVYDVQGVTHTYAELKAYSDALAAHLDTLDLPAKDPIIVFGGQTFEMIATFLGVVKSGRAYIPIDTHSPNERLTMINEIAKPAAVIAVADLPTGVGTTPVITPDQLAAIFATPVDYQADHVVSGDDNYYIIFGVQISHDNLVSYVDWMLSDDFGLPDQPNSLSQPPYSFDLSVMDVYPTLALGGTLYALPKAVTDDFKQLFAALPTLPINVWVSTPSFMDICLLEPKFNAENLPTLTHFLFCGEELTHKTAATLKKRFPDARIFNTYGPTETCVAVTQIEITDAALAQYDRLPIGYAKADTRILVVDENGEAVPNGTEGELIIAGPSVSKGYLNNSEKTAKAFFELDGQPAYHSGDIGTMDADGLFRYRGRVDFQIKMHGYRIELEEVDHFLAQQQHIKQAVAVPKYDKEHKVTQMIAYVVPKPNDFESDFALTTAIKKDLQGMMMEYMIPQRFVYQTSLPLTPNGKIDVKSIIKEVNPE

T3: L. plantarum DltA, full-length wild type, C-terminal His6 tag (Lactiplantibacillus plantarum, UniProt Q88VM6 1-508)
T3 construct: DltA (D-alanine-D-alanyl carrier protein ligase) of Lactiplantibacillus plantarum, full-length wild type, 508 residues, cloned in pT7-7; the C-terminal domain is not visible; also called LpDltA; D-alanine-D-alanyl carrier protein ligase; source: E. coli BL21 (DE3), purified (Ni-NTA, SEC)
T3 sequence (looked up): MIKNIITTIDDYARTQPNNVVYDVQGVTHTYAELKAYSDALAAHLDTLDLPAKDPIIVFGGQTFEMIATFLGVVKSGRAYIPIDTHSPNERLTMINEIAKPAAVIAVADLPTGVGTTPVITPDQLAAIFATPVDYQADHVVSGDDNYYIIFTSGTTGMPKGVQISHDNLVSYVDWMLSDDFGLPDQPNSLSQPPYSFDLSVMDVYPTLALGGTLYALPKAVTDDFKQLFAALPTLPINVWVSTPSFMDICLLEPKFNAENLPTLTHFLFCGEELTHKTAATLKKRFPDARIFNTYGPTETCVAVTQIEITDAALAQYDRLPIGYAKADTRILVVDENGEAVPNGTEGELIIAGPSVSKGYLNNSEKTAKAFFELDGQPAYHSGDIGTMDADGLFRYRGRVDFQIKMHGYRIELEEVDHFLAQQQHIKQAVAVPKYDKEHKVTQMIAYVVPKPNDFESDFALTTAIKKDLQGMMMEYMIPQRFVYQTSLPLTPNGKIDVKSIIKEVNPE

T4: L. plantarum AcpS, full-length wild type, C-terminal His6 tag (Lactiplantibacillus plantarum, UniProt Q88Z44 1-120)
T4 construct: AcpS (acyl-carrier protein synthase) of Lactiplantibacillus plantarum, full-length wild type, cloned in pT7-7 (NdeI/PstI); AcpS is a trimer in the crystal structure of the complex (PDB 7R49); also called LpAcpS; acyl-carrier protein synthase; source: E. coli BL21 (DE3), purified (Ni-NTA, Superdex 200 SEC)
T4 sequence (looked up): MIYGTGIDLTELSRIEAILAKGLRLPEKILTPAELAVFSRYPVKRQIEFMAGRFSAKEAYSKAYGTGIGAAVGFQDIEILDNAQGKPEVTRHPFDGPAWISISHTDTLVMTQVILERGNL


Assays:
[1] = target: the molecule itself; test: crystal structure; AcpS/DltC1 complex at 4.8 mg/ml, sitting-drop vapor diffusion at 293 K, 20% PEG3350 and 0.2 M sodium malonate; 1.88 Å
[2] = target: L. plantarum DltC1, full-length wild type, C-terminal His6 tag (Lactiplantibacillus plantarum) (UniProt Q88VM8); test: as above
[3] = target: T1, DltA-∆P-loop mutant, C-terminal His6 tag; test: MST
[4] = target: T2, DltA-∆P-loop mutant, C-terminal His6 tag; test: MST; one protein labelled with NHS red fluorescent dye (RED-NHS Monolith NT kit); Hepes 25 mM pH 7.5, NaCl 300 mM, Tween20 0.05%; 22 °C; triplicate; conditions: both partners purified
[5] = target: T3, L. plantarum DltA, full-length wild …; test: as above; conditions: both partners purified
[6] = target: T4, L. plantarum AcpS, full-length wild …; test: SEC; purified AcpS mixed with apo- or holo-DltC1, mixture subjected to size exclusion chromatography; conditions: both partners purified

| stoichiometry N (AcpS:DltC1 (3:3)) [2] | Kd [3] [nM] | binding result [4] | Kd [5] [µM] | binding result [6] | Binder | stoichiometry N [1] |
| --- | --- | --- | --- | --- | --- | --- |
| 1 |  |  |  |  | L. plantarum AcpS, full-length wild type, untagged (enzyme, Lactiplantibacillus plantarum, UniProt Q88Z44 1-120, looked up, AcpS of Lactiplantibacillus plantarum, full-length wild type, pT7-7 with a stop codon before the TEV cleavage site and the His6 tag; also called untagged LpAcpS^WT; untagged AcpS; source: E. coli BL21 (DE3); lysate mixed with Ni-NTA-purified DltC1, complex purified (Ni-NTA, Superdex 200 SEC)) MIYGTGIDLTELSRIEAILAKGLRLPEKILTPAELAVFSRYPVKRQIEFMAGRFSAKEAYSKAYGTGIGAAVGFQDIEILDNAQGKPEVTRHPFDGPAWISISHTDTLVMTQVILERGNL | 3 |
|  | 180 | binds | 5.74 |  | holo-DltC1 (DltC1 fully modified by phosphopantetheine), C-terminal His6 tag (natural protein, Lactiplantibacillus plantarum, UniProt Q88VM8 1-80, looked up, phosphopantetheine (Ppant) covalently attached to Ser38, confirmed by mass spectrometry, DltC1 (nc8_1734) of Lactiplantibacillus plantarum, wild type, co-expressed with wild type AcpS from pRSF-Duet1; also called Ppant-DltC1; Ppant-modified DltC; source: E. coli BL21 (DE3), co-expressed with LpAcpS from pRSF-Duet1, purified (Ni-NTA, SEC); 15N-labelled in M9 minimal media for NMR) MTMDDTKATVLSILADLTGEDVSSNMDVNLFDEGILDSMGSVQLLLELQNQLGIEVPVSEFQRSEWDTPAKIVAKVENLQ |  |
|  |  | binds | 8.89 | binds | apo-DltC1-S38A, C-terminal His6 tag (natural protein, Lactiplantibacillus plantarum, UniProt Q88VM8 1-80, looked up, DltC1 (nc8_1734) of Lactiplantibacillus plantarum, full length, catalytic Ser38 mutated to Ala, cloned in pET-28a(+); source: E. coli BL21 (DE3)-RIPL, purified (Ni-NTA, SEC); 15N- or 13C,15N-labelled in M9 minimal media for NMR) MTMDDTKATVLSILADLTGEDVSSNMDVNLFDEGILDAMGSVQLLLELQNQLGIEVPVSEFQRSEWDTPAKIVAKVENLQ |  |
